Experimental data: patent US6420345

How the values were obtained:
CDC2/cyclin B complex = CDC2/cyclin B complex (UniProt P06493); experiment: cell-based or functional assay
CDK4/cyclin D1 complex [1] = target: CDK4/cyclin D1 complex (UniProt P11802); experiment: cell-based or functional assay
CDK4/cyclin D1 complex [2] = target: CDK4/cyclin D1 complex (UniProt P11802); experiment: in vitro kinase inhibition assay (32P incorporation into GST-Rb)
CDK2/cyclin A complex = CDK2/cyclin A complex (UniProt P24941); experiment: cell-based or functional assay
CDK2/cyclin E complex = CDK2/cyclin E complex (UniProt P24941); experiment: cell-based or functional assay

Chain of CDK4/cyclin D1 complex (P11802 whole entry, chain 1 of 2): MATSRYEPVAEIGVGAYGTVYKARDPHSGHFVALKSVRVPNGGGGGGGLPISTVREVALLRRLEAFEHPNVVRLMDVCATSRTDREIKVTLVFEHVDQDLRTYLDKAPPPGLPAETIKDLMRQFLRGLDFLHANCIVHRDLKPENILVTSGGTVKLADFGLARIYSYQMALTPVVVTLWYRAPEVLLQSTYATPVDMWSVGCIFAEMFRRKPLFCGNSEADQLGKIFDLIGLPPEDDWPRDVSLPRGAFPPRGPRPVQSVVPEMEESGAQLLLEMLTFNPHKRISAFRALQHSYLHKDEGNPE
Chain of CDK4/cyclin D1 complex (P24385 whole entry, chain 2 of 2, further chain): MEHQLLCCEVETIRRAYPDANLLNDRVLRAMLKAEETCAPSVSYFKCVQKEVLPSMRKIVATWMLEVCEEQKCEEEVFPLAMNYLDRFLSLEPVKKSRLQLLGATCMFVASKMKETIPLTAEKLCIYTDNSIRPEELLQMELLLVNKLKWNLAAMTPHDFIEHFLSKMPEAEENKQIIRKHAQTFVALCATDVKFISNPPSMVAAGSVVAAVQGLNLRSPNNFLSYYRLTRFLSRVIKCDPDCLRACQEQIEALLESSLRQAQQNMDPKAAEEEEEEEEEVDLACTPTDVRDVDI
Chain of CDC2/cyclin B complex (P06493 whole entry, chain 1 of 2): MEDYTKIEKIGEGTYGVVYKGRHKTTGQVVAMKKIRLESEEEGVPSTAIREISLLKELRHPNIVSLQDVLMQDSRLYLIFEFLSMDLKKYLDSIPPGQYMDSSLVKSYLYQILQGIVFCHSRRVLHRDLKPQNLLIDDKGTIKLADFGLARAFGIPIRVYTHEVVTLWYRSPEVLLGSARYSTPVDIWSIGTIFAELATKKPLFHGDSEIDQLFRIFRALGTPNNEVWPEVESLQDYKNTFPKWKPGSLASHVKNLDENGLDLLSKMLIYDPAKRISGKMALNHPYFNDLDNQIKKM
Chain of CDC2/cyclin B complex (P14635 whole entry, chain 2 of 2, further chain): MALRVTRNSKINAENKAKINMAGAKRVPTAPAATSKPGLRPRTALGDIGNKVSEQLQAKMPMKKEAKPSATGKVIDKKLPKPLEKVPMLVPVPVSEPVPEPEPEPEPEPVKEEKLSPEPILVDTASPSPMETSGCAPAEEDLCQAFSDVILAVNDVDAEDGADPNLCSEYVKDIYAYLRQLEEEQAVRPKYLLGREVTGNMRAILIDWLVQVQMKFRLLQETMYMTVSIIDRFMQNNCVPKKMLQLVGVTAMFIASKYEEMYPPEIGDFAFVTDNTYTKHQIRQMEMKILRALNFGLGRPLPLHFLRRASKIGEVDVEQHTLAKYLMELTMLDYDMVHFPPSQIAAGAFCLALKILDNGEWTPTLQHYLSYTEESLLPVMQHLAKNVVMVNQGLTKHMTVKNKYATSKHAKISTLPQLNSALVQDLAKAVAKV

Substance	IC50, in vitro kinase assay (CDC2/cyclin B complex) [nM]	IC50, in vitro kinase assay (CDK4/cyclin D1 complex [1]) [nM]	Ki (CDK4/cyclin D1 complex [2]) [nM]	IC50, in vitro kinase assay (CDK2/cyclin A complex) [nM]	IC50, in vitro kinase assay (CDK2/cyclin E complex) [nM]
human p27 (full length, 6xHis and HA tagged) (from UniProt P46527 1-198)	20	63			
p27-p16 fusion protein	15	25	23	25	30
